Reference: PMC3102665, “A Sir2-Like Protein Participates in Mycobacterial NHEJ” (PLoS ONE, 2011)

B1: GST-MsmSir2 fusion protein (enzyme, M. smegmatis, UniProt A0R2N3 1-240, looked up)
chain: MQVTVLSGAGISAESGVPTFRDAETGLWAQVDPYEISSTDGWQRNPEKVWAWYLWRHYMMARVAPNEAHRTVAAWEDHLDVRVVTQNIDDLHERAGSTNVYHLHGSLFEFRCDACGSAFEGNLPEMPEPVETIDPPVCPCSGLIRPSVVWFGEPLPDAAWNRSVLAVSSADVVIVVGTSSIVYPAAGLPEAALAAGKPVIEVNPERTPLSDSATVSLRETASEALPTLLQRLPELLNRSA
notes: Sir2 (NAD-dependent deacetylase MSMEG_5175) of Mycobacterium smegmatis; the vector pGEX-6P-1 would put GST at the N-terminus; also called MsmSir2-GST; source: E. coli BL21 (DE3), purified (glutathione-Sepharose 4B)
B2: GST-MtuSir2 fusion protein (enzyme)
chain: MRVAVLSGAGISAESGVPTFRDDKNGLWARFDPYELSSTQGWLRNPERVWGWYLWRHYLVANVEPNDGHRAIAAWQDHAEVSVITQNVDDLHERAGSGAVHHLHGSLFEFRCARCGVPYTDALPEMPEPAIEVEPPVCDCGGLIRPDIVWFGEPLPEEPWRSAVEATGSADVMVVVGTSAIVYPAAGLPDLALARGTAVIEVNPEPTPLSGSATISIRESASQALPGLLERLPALLK
notes: the vector pGEX-6P-1 would put GST at the N-terminus; also called MtuSir2-GST

Tests used:
His-MsmLigD protein = target: T1, His-MsmLigD protein (M. smegmatis, UniProt A0R3R7 1-762); assay: pull-down; GST fusion held on glutathione-Sepharose 4B beads, incubated with purified His-tagged protein at 4°C for 8 h in 50 mM Tris-HCl pH 7.5, 200 mM NaCl, 10% glycerol; washes with 0.1% Nonidet P-40; Western blot with anti-His-tag antibody; settings: both partners purified
T1 construct: Multifunctional DNA ligase LigD of Mycobacterium smegmatis; The vector pET28a with a BamHI insert would put the His tag at the N-terminus; source: E. coli BL21 (DE3), purified (Ni-NTA)
T1 sequence (looked up): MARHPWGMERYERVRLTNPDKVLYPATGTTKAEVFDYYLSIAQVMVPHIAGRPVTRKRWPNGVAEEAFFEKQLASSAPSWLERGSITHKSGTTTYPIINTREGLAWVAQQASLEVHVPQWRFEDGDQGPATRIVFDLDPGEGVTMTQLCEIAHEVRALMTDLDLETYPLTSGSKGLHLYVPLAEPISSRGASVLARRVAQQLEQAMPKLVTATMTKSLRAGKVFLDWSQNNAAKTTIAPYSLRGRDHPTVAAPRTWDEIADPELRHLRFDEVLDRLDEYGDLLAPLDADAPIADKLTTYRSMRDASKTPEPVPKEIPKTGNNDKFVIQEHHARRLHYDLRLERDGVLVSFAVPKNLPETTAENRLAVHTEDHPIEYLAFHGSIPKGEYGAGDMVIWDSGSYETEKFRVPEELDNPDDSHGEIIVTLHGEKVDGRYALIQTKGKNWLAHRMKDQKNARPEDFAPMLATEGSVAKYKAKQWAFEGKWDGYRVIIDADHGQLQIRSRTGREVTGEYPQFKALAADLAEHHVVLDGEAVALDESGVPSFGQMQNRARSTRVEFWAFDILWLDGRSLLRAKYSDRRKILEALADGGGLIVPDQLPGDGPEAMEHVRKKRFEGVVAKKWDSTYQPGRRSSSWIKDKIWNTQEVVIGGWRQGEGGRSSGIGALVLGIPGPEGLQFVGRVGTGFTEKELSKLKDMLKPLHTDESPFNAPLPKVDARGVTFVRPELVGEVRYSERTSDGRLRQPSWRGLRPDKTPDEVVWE

His-MtuLigD protein = target: T2, His-MtuLigD protein (M. tuberculosis, UniProt P9WNV3 1-759); assay: pull-down; settings: both partners purified
T2 construct: The vector pET28a with a BamHI insert would put the His tag at the N-terminus
T2 sequence (P9WNV3 whole entry): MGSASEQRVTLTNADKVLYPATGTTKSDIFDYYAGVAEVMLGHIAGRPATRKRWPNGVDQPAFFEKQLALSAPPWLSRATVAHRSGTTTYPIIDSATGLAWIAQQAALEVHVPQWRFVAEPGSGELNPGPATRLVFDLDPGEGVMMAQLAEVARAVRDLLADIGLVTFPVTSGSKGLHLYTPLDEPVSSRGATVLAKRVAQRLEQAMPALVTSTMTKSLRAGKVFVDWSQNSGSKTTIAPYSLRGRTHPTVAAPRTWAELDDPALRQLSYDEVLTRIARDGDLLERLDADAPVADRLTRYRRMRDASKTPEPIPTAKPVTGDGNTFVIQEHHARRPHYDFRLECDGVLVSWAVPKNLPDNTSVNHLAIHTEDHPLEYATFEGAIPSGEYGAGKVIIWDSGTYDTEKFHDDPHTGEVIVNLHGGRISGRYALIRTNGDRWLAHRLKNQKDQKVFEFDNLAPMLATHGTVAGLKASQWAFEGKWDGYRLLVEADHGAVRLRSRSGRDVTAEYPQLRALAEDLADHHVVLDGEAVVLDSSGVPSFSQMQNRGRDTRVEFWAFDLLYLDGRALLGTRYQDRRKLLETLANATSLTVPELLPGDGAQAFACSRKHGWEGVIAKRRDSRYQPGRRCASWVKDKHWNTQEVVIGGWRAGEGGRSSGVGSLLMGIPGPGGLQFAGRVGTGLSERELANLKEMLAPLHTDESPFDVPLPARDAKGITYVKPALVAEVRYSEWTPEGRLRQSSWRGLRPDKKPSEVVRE

Row | Binder | binding result (His-MsmLigD protein) | binding result (His-MtuLigD protein)
1 | B1 | binds | 
2 | B2 |  | binds
